Where two headings read alike, the source gives them in different places. Where a SMILES comes first, the peptide text is derived from it. Bridges are numbered along the chain shown (N, C = ends). [ ]: non-standard residue; d: D form. The star is where a group is joined. AMBHA = 6-(4-(aminomethyl)benzamido)hexanoic acid linker, NCc1ccc(C(=O)NCCCCCC(=O)*)cc1; DOTA = O=C(O)CN1CCN(CC(=O)O)CCN(CC(=O)*)CCN(CC(=O)O)CC1; NOTA = O=C(O)CN1CCN(CC(=O)O)CCN(CC(=O)*)CC1; 2Nal = N[C@@H](Cc1ccc2ccccc2c1)C(=O)O; Fmoc = O=C(OCC1c2ccccc2-c2ccccc21)*; Pen = CC(C)(S)[C@H](N)C(=O)O; 4Amb = NCc1ccc(C(=O)O)cc1; Ahx = NCCCCCC(=O)O

This is an account of results in patent US20230099200A1, “RADIOLABELED PEPTIDES FOR NON-INVASIVE DIAGNOSIS AND TREATMENT OF CXCR4 EXPRESSING TUMORS” (ISTITUTO NAZIONALE TUMORI IRCCS - FONDAZIONE G. PASCALE, priority 2019, published 2023).

One data set can be described thus: in vivo. Also noted: species or system mice. The conditions noted are these: female, athymic nude, mouse, iv, total radioactivity. The source says: (§1) Female athymic nude mice (6 weeks old from Envigo Laboratories, Indianapolis, Ind., USA) were subcutaneously (s.c.) injected with 10^7 CHO (right flank) and CHO-hCXCR4 (left flank) or CHO-hCXCR4 cells alone (right flank). Once tumors became palpable (100=^3 [volume=0.5×long diameter×(short diameter)^2]), approximately 15-21 days post injection (p.i.), the animals were used for the experiments. Tumor-bearing CHO/CHO-hCXCR4 mice were i.v. injected with 10-15 MBq of the respective radiotracer in 100 μL of PBS. At 45 min p.i., mice were anaesthetized with Avertin and images were acquired using a Discovery 600 PET/TC scanner (GE healthcare) in 3D mode with measured attenuation correction (1 bed position, 6 min scanning time). Data were decay-corrected to the time of tracer injection. The reconstructed images including PET, CT and fused PET/TC images, were generated on the advantage workstation version (AW4.6 software, GE healthcare). Tissue activity (e.g. tumor, lung, liver, kidney) was quantified considering the volume of a region of interest (ROI) to determine maximum standardized uptake values (SUVmax). Non-specific tracer accumulation was investigated by co-injection of 8 mg/kg unlabeled peptide […]. CHO and CHO-hCXCR4 tumors were microscopically analyzed (H&E) and CXCR4 expression was evaluated through immunohistochemistry (IHC) (mab172, clone 44716, diluition 1:[…]&D system). The percentage of positive cells was evaluated in at least 5 areas (HPF 200× magnification) (Zeiss AxioScope light microscope). Statistical analysis was performed using the MedCalc 9.3.7.0 and Excel software. Unpaired Student t test was used for statistical analysis of ex vivo biodistribution and PET/TC images. The Spearman's correlation was used to measure the degree of association between SUV(max) and % CXCR4 IHC staining.

The subject of the next data set is CHO-hCXCR4 xenografts. Briefly: in vivo. Set-up: species or system mice. Particulars: mouse; for tumor accumulation upon co-injection of unlabeled competitor (R54): 8 mg/kg.
Source text: as §1

The next data set deals with CHO-hCXCR4 tumor. Also noted: species or system mice. The conditions noted are these: mouse, in vivo. The procedure: Female athymic nude mice (6 weeks old from Envigo Laboratories, Indianapolis, Ind., USA) were subcutaneously (s.c.) injected with 10^7 CHO (right flank) and CHO-hCXCR4 (left flank) or CHO-hCXCR4 cells alone (right flank). Once tumors became palpable (100=^3 [volume=0.5×long diameter×(short diameter)^2]), approximately 15-21 days post injection (p.i.), the animals were used for the experiments. 10-15 MBq of the respective ^68Ga-labeled peptide in 100 μL of PBS were injected into the tail vein of nude mice bearing CHO-hCXCR4 tumor (groups of n=3-5). For competition studies, 8 mg/kg of unlabeled […], were co-injected with the radioligands. At 45 min p.i., blood was collected from the retro-orbital plexus (100 μl) and mice were sacrificed and the tissues and organs of interest were dissected, weighed, and counted for radioactivity in a γ-counter. Biodistribution data are given as percent injected dose per gram tissue, % ID/g (means±SD). The biodistribution of [^68Ga]DOTA-AMBHA-R54 and [^68Ga]NOTA-AMBHA-R54 was investigated in CHO-hCXCR4 bearing […] mice (45 min p.i.). […] Data are given in % ID/g and are means±SD.

Data set [1] addresses T1, CXCR4 (Homo sapiens, UniProt P61073). Particulars: competitive binding assay using anti-CXCR4 mAb 12G5; read-out: CXCR4 affinity IC50; cited from earlier work.
In data set [2] the target is T1, CXCR4. Briefly: competitive binding with [^125I]CXCL12 as radioligand on CXCR4-expressing CCRF-CEM cells. Set-up: using CXCR4-expressing CCRF-CEM cells, human T lymphoblastic leukemia cells CXCR4 expressing; endogenous in cells; host or cells: CCRF-CEM (human T-cell leukemia), whole cells. Particulars: [^125I]CXCL12 radioligand, means ±SD, read-out: hCXCR4 binding affinity IC50. The procedure: Specifically, according to the present invention, DOTA and NOTA-AMBHA-R54 were synthesized by combining solid and solution-phase peptide synthesis. Binding affinities (IC50) were determined using CXCR4-expressing CCRF-CEM cells, human T lymphoblastic leukemia cells CXCR4 expressing, with [^125I]CXCL12 as radioligand. Chinese hamster ovary (CHO) and CHO cells transduced with human CXCR4 (CHO-hCXCR4) grown in complete medium supplemented with 1 mg/mL G418 (a kind gift of Dr. David McDermott (NIAID, NIH, Bethesda, Md.).
Binding affinities to hCXCR4 were assessed with CCRF-CEM cells (1·10^6 cells/sample) in binding buffer (PBS containing 50 mM HEPES, 1 mM CaCl2, 5 mM MgCl2, 0.5% BSA, and 0.3 mM NaN3) and [^125I]CXCL12 (Perkin-Elmer, 2200 Ci/mmol) as radioligand. Cells were incubated with 100.000 cpm of the respective radioligand (approx. 0.1 nM) plus increasing concentrations (10^−11 to 10^−5 M) of the respective peptide of interest (n=3 per concentration, total sample volume 250 μL). After incubation at 4° C. for 60 min (CCRF-CEM cells) at room temperature (RT), samples were centrifuged (5 min, 450 g, Megafuge 1.0, Heraeus Thermo Scientific), the supernatant was carefully removed and pooled with the supernatants of two subsequently performed washing steps. […]

The target of data set [3] is T2, human CXCR4 (chemokine receptor 4) on CCRF-CEM cells (human, UniProt P61073 1-352).
T2 construct: whole, on cells; also called hCXCR4
T2 sequence (P61073 whole entry): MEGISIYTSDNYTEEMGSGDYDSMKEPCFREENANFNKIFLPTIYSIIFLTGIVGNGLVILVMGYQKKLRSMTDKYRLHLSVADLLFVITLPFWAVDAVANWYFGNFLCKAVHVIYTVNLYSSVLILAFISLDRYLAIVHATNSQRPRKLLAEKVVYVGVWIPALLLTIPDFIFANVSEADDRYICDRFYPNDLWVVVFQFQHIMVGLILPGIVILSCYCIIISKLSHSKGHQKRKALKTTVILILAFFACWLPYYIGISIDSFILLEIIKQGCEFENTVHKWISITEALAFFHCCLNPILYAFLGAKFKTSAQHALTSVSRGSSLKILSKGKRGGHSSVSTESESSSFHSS
Kind of data set: displacement of [125I]CXCL12 from CXCR4-expressing CCRF-CEM cells, gamma counting. The procedure:
Cells were incubated with 100.000 cpm of the respective radioligand (approx. 0.1 nM) plus increasing concentrations (10⁻¹¹ to 10⁻⁵ M) of the respective peptide of interest (n=3 per concentration, total sample volume 250 μL). After incubation at 4° C. for 60 min (CCRF-CEM cells) at room temperature (RT), samples were centrifuged (5 min, 450 g, Megafuge 1.0, Heraeus Thermo Scientific), the supernatant was carefully removed and pooled with the supernatants of two subsequently performed washing steps. Then, the amount of free (pooled supernatants) and bound radioligand (cell pellet) was quantified using a γ-counter and expressed in percent of total added activity. The half maximal inhibitory concentration (IC₅₀) values were calculated using GraphPad Prism software (GraphPad Software, Inc., California).
To assess the influence of modifications and chelator conjugation on R54, the CXCR4 affinity of Fmoc-AMBHA-R54 (see above the structure), NOTA-AMBHA-R54 and DOTA-AMBHA-R54 peptides as well as unmodified R54 were tested in competitive binding with [¹²⁵I]CXCL12 as radioligand on CXCR4-expressing CCRF-CEM cells. Each experiment was performed in triplicate, and results are means ±SD from a minimum of three separate experiments.
(In general: Loss of bound radioactivity is the signal in a displacement assay; it reports binding, not function.)

T1 sequence (P61073 whole entry): as above

`C[C@H](NC(=O)[C@H](CCCNC(=N)N)NC(=O)CCCCCNC(=O)c1ccc(CNC(=O)CN2CCN(CC(=O)O)CCN(CC(=O)O)CCN(CC(=O)O)CC2)cc1)C(=O)N[C@@H]1CSSC(C)(C)[C@@H](C(=O)O)NC(=O)[C@H](Cc2c[nH]cn2)NC(=O)[C@H](Cc2ccc3ccccc3c2)NC(=O)[C@H](CCCNC(=N)N)NC1=O` [[^68Ga]DOTA-AMBHA-R54, metal not drawn] ({DOTA-4Amb-Ahx}-RA[dC]R[2Nal]H[Pen]-OH; disulfide 3-7): the SUV at 0.75 h in the data set “in vivo” turned out to be 2.02 ± 0.14 SUV. Besides, in the data set with CHO-hCXCR4 xenografts, the “maximum standardized uptake value (SUVmax)” value came to 2.02 ± 0.14 g/mL and the “tumor accumulation upon co-injection of unlabeled competitor (R54)” value is reported as “reduced to background levels”. For the same molecule, the tumor/non-tumor ratios result in the data set on CHO-hCXCR4 tumor is given as “high tumor/non-tumor ratios”.

Take `C[C@H](NC(=O)[C@H](CCCNC(=N)N)NC(=O)CCCCCNC(=O)c1ccc(CNC(=O)CN2CCN(CC(=O)O)CCN(CC(=O)O)CC2)cc1)C(=O)N[C@@H]1CSSC(C)(C)[C@@H](C(=O)O)NC(=O)[C@H](Cc2c[nH]cn2)NC(=O)[C@H](Cc2ccc3ccccc3c2)NC(=O)[C@H](CCCNC(=N)N)NC1=O` [[^68Ga]NOTA-AMBHA-R54, metal not drawn] ({NOTA-4Amb-Ahx}-RA[dC]R[2Nal]H[Pen]-OH; disulfide 3-7): the SUV at 0.75 h in the data set “in vivo” is 19.6 ± 2 SUV. Further, in the data set on CHO-hCXCR4 xenografts, the “maximum standardized uptake value (SUVmax)” value came out at 19.6 ± 2.00 g/mL and the “tumor accumulation upon co-injection of unlabeled competitor (R54)” value was “reduced to background levels”. In the data set on CHO-hCXCR4 tumor, the excretion route entry was “exclusive renal excretion” and the tumor/non-tumor ratios result is listed as “high tumor/non-tumor ratios”.

Usually IC50 stands for the concentration that gives 50% inhibition. Turning to `CC(=O)N[C@@H](CCCNC(=N)N)C(=O)N[C@@H](C)C(=O)N[C@@H]1CSSC(C)(C)[C@@H](C(=O)O)NC(=O)[C@H](Cc2cnc[nH]2)NC(=O)[C@H](Cc2ccc3ccccc3c2)NC(=O)[C@H](CCCNC(=N)N)NC1=O` [Peptide R54, Ac-Arg-Ala-[DCys-Arg-Nal(2′)-His-Pen]COOH] (Ac-RA[dC]R[2Nal]H[Pen]-OH; disulfide 3-7), on CXCR4 [1], the IC50 is 1.5 ± 0.5 nM.

In the case of `CC(=O)N[C@@H](CCCNC(=N)N)C(=O)N[C@@H](C)C(=O)N[C@@H]1CSSC(C)(C)[C@@H](C(=O)O)NC(=O)[C@H](Cc2c[nH]cn2)NC(=O)[C@H](Cc2ccc3ccccc3c2)NC(=O)[C@H](CCCNC(=N)N)NC1=O` [Peptide R54, Ac-Arg-Ala-[DCys-Arg-Nal(2′)-His-Pen]COOH] (Ac-RA[dC]R[2Nal]H[Pen]-OH; disulfide 3-7), the IC50 at CXCR4 [2] is 20 ± 2 nM.

B1: NOTA-AMBHA-R54 (peptide)
peptide: {NOTA-AMBHA}-RA[dC]R[2Nal]H[Pen]-OH
modifications: disulfide 3-7
notes: also called NOTA-Ahx-R54; NOTA-R54
In data set [3], B1 had a half-maximal inhibitory concentration (IC50) of 36 nM.

B2: Fmoc-AMBHA-R54 (peptide)
peptide: {Fmoc-AMBHA}-RA[dC]R[2Nal]H[Pen]-OH
modifications: disulfide 3-7
With B2, the IC50 in data set [3] worked out at 38.5 nM.

B3: DOTA-AMBHA-R54 (peptide)
peptide: {DOTA-AMBHA}-RA[dC]R[2Nal]H[Pen]-OH
modifications: disulfide 3-7
notes: also called DOTA-Ahx-R54; DOTA-R54
Take B3: the concentration for half-maximal inhibition (IC50) in data set [3] turned out to be 107 nM.
